The test has as its target T1, recombinant mouse CD206 full length protein (Mus musculus, UniProt Q61830).
T1 construct: honeybee melittin signal peptide (N); host or cells: Expi293E cells
T1 sequence (Q61830 23-1387): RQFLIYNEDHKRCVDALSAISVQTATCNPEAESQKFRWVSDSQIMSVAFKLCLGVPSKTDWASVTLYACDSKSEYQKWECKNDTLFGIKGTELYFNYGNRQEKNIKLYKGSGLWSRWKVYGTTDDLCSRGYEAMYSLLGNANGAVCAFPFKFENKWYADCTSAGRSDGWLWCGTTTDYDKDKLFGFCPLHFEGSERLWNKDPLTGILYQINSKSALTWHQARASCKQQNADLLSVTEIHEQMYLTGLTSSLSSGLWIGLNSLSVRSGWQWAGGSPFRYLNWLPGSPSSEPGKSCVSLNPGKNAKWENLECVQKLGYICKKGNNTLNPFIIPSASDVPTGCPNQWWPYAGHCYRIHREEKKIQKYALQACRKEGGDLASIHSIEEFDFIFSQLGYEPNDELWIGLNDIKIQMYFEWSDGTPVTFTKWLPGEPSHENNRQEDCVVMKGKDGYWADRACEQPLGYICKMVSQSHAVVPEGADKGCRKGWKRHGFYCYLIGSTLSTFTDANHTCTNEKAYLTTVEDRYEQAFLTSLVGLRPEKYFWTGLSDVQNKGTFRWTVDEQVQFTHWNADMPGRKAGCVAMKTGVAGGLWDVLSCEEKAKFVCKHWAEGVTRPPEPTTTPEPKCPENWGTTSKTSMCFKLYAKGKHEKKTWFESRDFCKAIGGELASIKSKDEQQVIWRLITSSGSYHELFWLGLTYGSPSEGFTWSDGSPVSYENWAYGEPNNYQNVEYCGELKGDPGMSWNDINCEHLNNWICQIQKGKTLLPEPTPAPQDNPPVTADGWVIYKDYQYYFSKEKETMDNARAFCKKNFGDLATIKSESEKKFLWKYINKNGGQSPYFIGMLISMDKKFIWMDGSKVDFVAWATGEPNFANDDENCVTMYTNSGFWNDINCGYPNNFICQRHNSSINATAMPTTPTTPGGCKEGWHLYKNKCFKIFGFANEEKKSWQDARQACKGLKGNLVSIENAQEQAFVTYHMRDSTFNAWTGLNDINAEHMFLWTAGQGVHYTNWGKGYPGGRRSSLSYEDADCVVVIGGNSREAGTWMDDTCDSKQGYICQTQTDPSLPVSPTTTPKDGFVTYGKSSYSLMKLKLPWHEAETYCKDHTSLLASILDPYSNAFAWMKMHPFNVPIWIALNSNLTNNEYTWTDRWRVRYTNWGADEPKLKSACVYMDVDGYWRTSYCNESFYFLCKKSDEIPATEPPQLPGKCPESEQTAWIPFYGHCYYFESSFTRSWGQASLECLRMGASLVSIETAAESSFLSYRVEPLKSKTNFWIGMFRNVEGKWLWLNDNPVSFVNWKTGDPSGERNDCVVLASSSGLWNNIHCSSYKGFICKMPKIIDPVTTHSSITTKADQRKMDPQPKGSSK
Put plainly: Negative stain electron microscopy of open vs closed CD206 conformation. In kind it is biochemical. As to conditions: negative stain EM. As to the method:
A 3 μL aliquot containing ˜0.01 mg/mL of the sample was applied for 20 seconds onto a carbon-coated 200 Cu mesh grid that had been glow discharged at 30 mA for 30 sec, then negatively stained with 0.7% (w/v) uranyl formate for 40 sec. […] Images were acquired with an Eagle 2k×2k CCD camera (http://FEI.com) using a nominal defocus of 1500 nm and the SerialEM software (54). […] Images were acquired with a Ceta 4k×4k CCD camera (http://FEI.com) using a nominal defocus of 1200 nm and the EPU software. For electron microscopy data processing, particles were selected from the micrographs, extracted, and a reference-free 2D class averages were obtained using RELION 2.1.0. Microscale thermophoresis and cellular thermal shift assays.

Take EKLSAFRNFF [AVP1]: the “closed vs open conformation of CD206” value is “lower ratios of closed-to-open conformations”.

Turning to “FFRKSKEKIG [LL37F1, 10mer motif from cathelicidin antimicrobial peptide [Homo sapiens]]”, the “closed vs open conformation of CD206” value is given as “lower ratios of closed-to-open conformations”.

(Values after patent US12564617B2, “Methods for modulating macrophage activity” (Riptide Bioscience, Inc., priority 2019, dated 2026).)
